Entries after “also recorded” stand apart in the source; their conditions may differ.
B1: Eph099B-208.261: EphA2 monoclonal antibody; hybridoma ATCC PTA-4573; VL SEQ ID NO:1, VH SEQ ID NO:5 (antibody, listed as Homo sapiens, V domains shown)
VH: QVQLQQPGAELVKPGASVKLSCKASGYTFTSYWMHWVKQRPGQGLEWIGMIHPNSGSTNYNEKFKSKATLTVDKSSSTAYMRLSSLTSEDSAVYYCARGGNMVGGGYWGQGTTLTVSS
VL: QIVLTQSPALMSASPGEKVTMTCSASSSVSYMYWYQQKPRSSPKPWIYLTTNLASGVPARFSGSGSGTSYSLTISSMEAEDAATYYCQQWSSNPFTFGSGTKLEIR
B2: Eph099B-233.152: EphA2 monoclonal antibody; hybridoma ATCC PTA-5194; VL SEQ ID NO:17, VH SEQ ID NO:21 (antibody, listed as Homo sapiens, V domains shown)
VH: EVKLVESGGGLVQPGGSLSLSCAASGFTFTDYSMNWVRQPPGKALEWLGFIRNKANDYTTEYSASVKGRFTISRDNSQSILYLQMNALRAEDSATYYCVRYPRYHAMDSWGQGTSVTVSS
VL: DIVLTQSPATLSVTPGDSVNLSCRASQSISNNLHWYQQKSHESPRLLIKYVFQSISGIPSRFSGSGSGTDFTLSINSVETEDFGMYFCQQSNSWPLTFGAGTKLELK
B3: EA2: EphA2 agonistic monoclonal antibody; ATCC deposit no. PTA-4380; co-pending application Ser. No. 10/436,783; VL SEQ ID NO:33, VH SEQ ID NO:37 (antibody, listed as Homo Sapiens, V domains shown)
VH: DVKLVESGGGLVKPGGSLKLSCAASGFTFSSYTMSWVRQTPEKRLEWVATISSGGTYTYYPDSVKGRFTISRDNAKNTLYLQMSSLKSEDTAMYYCTREAIFTYWGQGTLVTVSA
VL: DIKMTQSPSSMYASLGERVTITCKASQDINNYLSWFQQKPGKSPKTLIYRANRLVDGVPSRFSGSGSGQDYSLTISSLEYEDMGIYYCLKYDEFPYTFGGGTKLEIK

Key:
[1] = system: cancer cell colonies already formed in soft agar; assay: Elimination of cancer cell colonies already formed in soft agar; type: cell-based; details: antibodies added on third day; data not shown
Method: The ability of the antibodies of the invention to inhibit cancer cell formation in soft agar was assayed as described in Zelinski et al. (2001, Cancer Res. 61:2301-6). Briefly, cells were suspended in soft agar for 7 days at 37° C. in the presence of purified antibody or control solution (PBS). Antibodies were administered at the time of suspension in both bottom and top agar solutions. Colony formation was scored microscopically using an Olympus CK-3 inverted phase-contrast microscope outfitted with a 40× objective. Clusters containing at least three cells were scored as a positive.
The ability of the antibodies of the invention to eliminate cancer cell colonies already formed in soft agar was assayed. Assay methods were similar to those described above except that antibodies were not added to the cancer cells until the third day of growth in soft agar.

EphA2-Fc = molecular target: T1, EphA2-Fc (Homo sapiens, UniProt P29317); assay: Competitive ELISA: inhibition of labeled EA2 binding to EphA2-Fc; details: unlabeled antibody, increasing concentrations; FIG. 1
T1 construct: consisted of the extracellular domain of human EphA2 linked to human immunoglobulin
Method: The ability of labeled EA2 monoclonal antibody to bind EphA2-Fc was assayed by competitive ELISA in presence of either unlabeled monoclonal antibodies EA2 or Eph099B-208.261. Ratios of unlabeled to labeled antibody used in the assay are indicated on the x-axis. EA2 is indicated by diamonds and Eph099B-208.261 is indicated by squares.
Monoclonal antibodies against the extracellular domain of EphA2 were generated using the fusion protein EphA2-Fc. This fusion protein consisted of the extracellular domain of human EphA2 linked to human immunoglobulin to facilitate secretion of the fusion protein.
Supernatants from bulk culture hybridomas were screened for immunoreactivity against EphA2 (Table 6, column 4) using standard molecular biological techniques (e.g., ELISA immunoassay). Supernatants were further screened for the ability to inhibit an EphA2 monoclonal antibody (EA2; ATCC deposit no. PTA-4380; see co-pending U.S. patent application Ser. No. 10/436,783, entitled “EphA2 Agonistic Monoclonal Antibodies and Methods of Use Thereof' filed May 12, 2003) from binding to EphA2. Briefly, the ability of labeled EA2 to bind EphA2-Fc was assayed by competitive ELISA in presence of either unlabeled EA2 or unlabeled Eph099B-208.261 (FIG. 1). […] Additionally, many of the other antibodies could inhibit EA2 binding to EphA2 as well (Table 6, column 3).

[2] = system: MDA-MB-231 breast cancer cells implanted subcutaneously; assay: Tumor growth and survival in vivo, MDA-MB-231 implanted subcutaneously; design: species or system athymic mice; details: for Growth of MDA-MB-231 cells implanted subcutaneously: 6mg/kg intraperitoneally twice a week for 3 weeks, versus PBS or 1A7
Method: MDA-MB-231 cells were implanted subcutaneously into athymic mice. After the tumors had grown to an average volume of 100 mm^3, mice were administered 6 mg/ml Eph099B-233.152 or PBS control intraperitoneally twice a week for 3 weeks. (A) Tumor Growth. Tumor growth was assessed and expressed as a ratio of the tumor volume divided by initial tumor volume (100 mm^3). Control mice are indicated by circles and Eph099B-233.152-treated mice are indicated by squares. Arrows indicate time of Eph099B-233.152 or PBS administration. (B) Survival. Tumor growth was allowed to proceed until tumor volume reached 1000 mm^3. Survival of the mice was assessed by scoring the percent of mice living each day post treatment. Control mice are indicated by grey and Eph099B-233.152-treated mice are indicated by black.
FIGS. 7A-7D: The EphA2 antibodies, EA2, Eph099B-208.261, and Eph099B-233.152, inhibit tumor cell growth in vivo. MDA-MB-231 breast cancer cells were implanted (A) orthotopically or (B) subcutaneously into athymic mice. (C) A549 lung cancer cells were implanted subcutaneously into athymic mice. After the tumors had grown to an average volume of 100 mm^3, mice were administered 6 mg/kg of the indicated antibody or negative control (PBS or 1A7 antibody) intraperitoneally twice a week for 3 weeks. Tumor growth was assessed and expressed as a ratio of the tumor volume divided by initial tumor volume (100 mm^3). (D) MDA-MB-231 breast cancer cells were implanted subcutaneously into athymic mice. After the tumors had grown to an average volume of 100 mm^3, mice were administered 6 mg/kg of the indicated antibody or negative control intraperitoneally twice a week for 3 weeks. Total tumor volume was determined after sacrifice. Negative control is black, EA2 is white, Eph099B-208.261 is dark grey, and Eph099B-233.152 is light grey.
The ability of the antibodies of the invention to inhibit tumor cancer growth in vivo was assayed. Eph099B-233.152 can inhibit tumor cell growth in vivo and extend survival time of tumor-bearing mice. Briefly, 5×10^6 MDA-MB-231 breast cancer cells were implanted subcutaneously into athymic mice. After the tumors had grown to an average volume of 100mm^3, mice were administered 6mg/ml Eph099B-233.152 or PBS control intraperitoneally twice a week for 3 weeks. Tumor growth was assessed and expressed as a ratio of the tumor volume divided by initial tumor volume (100 mm^3). […] Tumor growth was allowed to proceed until tumor volume reached 1000 mm^3. Survival of the mice was assessed by scoring the percent of mice living each day post treatment. […] By day 36, all of the mice in the control group had died in contrast with only 70% of the mice admixture Eph099B-233.152.
5×10^6MDA-MB-231 breast cancer cells were implanted orthotopically or subcutaneously and 5×10^6 A549 lung cancer cells were implanted subcutaneously into athymic mice. After the tumors had grown to an average volume of 100 mm^3, mice were administered 6mg/kg of an EphA2 agonistic antibody or negative control (PBS or 1A7 antibody) intraperitoneally twice a week for 3 weeks. Animals were generally sacrificed at least two weeks after the last treatment or when tumors exceeded 2000 mm^3. Tumor growth was assessed and expressed either as a ratio of the tumor volume divided by initial tumor volume (100 mm^3) or as total tumor volume. Growth of MDA-MB-231 cells implanted orthotopically was inhibited by EA2 (FIG. 7A). Growth of MDA-MB-231 cells implanted subcutaneously was inhibited by EA2, Eph099B-208.261, and Eph099B-233.152 (FIG. 7B, D). Growth of A549 cells implanted subcutaneously was inhibited by EA2, or Eph099B-208.261 (FIG. 7C).

T1 sequence (P29317 24-537 limits assumed): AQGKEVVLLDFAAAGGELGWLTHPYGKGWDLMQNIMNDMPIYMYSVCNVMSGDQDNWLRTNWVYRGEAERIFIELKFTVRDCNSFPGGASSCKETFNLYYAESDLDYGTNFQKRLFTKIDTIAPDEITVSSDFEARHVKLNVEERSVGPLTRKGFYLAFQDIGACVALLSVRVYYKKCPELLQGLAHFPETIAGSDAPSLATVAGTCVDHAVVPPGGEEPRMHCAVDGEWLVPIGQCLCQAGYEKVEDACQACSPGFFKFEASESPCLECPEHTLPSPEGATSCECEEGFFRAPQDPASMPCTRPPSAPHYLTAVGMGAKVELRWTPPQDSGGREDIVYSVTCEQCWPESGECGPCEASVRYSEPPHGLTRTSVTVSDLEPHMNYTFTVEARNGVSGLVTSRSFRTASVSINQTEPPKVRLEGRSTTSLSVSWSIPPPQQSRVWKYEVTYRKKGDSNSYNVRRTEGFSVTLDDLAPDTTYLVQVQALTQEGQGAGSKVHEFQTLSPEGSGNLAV

| Molecule | Effect on cancer cell colonies already growing in soft agar [1] | Competition with labeled EA2 for binding to EphA2-Fc (EphA2-Fc) | Growth of MDA-MB-231 cells implanted subcutaneously [2] | Mice that had died by day 36 ([2]; 6mg/ml intraperitoneally twice a week for 3 weeks, all control mice had died) [%] | Survival of the mice (percent of mice living each day post treatment) ([2]; 6mg/ml intraperitoneally twice a week for 3 weeks, versus PBS) | Tumor growth (tumor volume divided by initial tumor volume) ([2]; 6mg/ml intraperitoneally twice a week for 3 weeks, versus PBS, after 30 days) |
| --- | --- | --- | --- | --- | --- | --- |
| B1 | can slow or reduce cancer cell colony growth in soft agar | could decrease the amount of labeled EA2 binding to EphA2-Fc; also recorded: can compete with EA2 for binding to EphA2 | inhibited | – | – | – |
| B2 | can slow or reduce cancer cell colony growth in soft agar | – | inhibited | 70 | A greater percentage of mice survived at each time point examined | smaller tumors than mice administered PBS; also recorded: inhibits tumor cell growth in vivo |
| B3 | – | could decrease the amount of labeled EA2 binding to EphA2-Fc | inhibited | – | – | – |
